Patent publication US20250313611A1

Key:
[1] = biological target: recombinant prefusion-stabilized SARS-COV-2 spike protein S-6P (SARS-CoV-2 (Wuhan)) (UniProt P0DTC2); experiment: ELISA, coated antigen, dilution series, OD450 [3/3]
[2] = biological target: recombinant stabilized SARS-COV-1 Spike protein ([change], with foldon) (SARS-CoV-1) (UniProt P59594); experiment: as above
[3] = biological target: SARS-COV-2 RBD (His-tagged, Sinobiologicals) (SARS-CoV-2 (Wuhan)) (UniProt P0DTC2); experiment: as above
[4] = biological target: recombinant human FcRn/FCGRT-B2M heterodimer protein (human) (UniProt P55899); experiment: SPR Biacore 8K+, antibody on CM5 chip, FcRn in solution, pH 6.0
recombinant human FcRn/FCGRT-B2M heterodimer protein (human), sequence (P55899 24-297 limits assumed, chain 1 of 2): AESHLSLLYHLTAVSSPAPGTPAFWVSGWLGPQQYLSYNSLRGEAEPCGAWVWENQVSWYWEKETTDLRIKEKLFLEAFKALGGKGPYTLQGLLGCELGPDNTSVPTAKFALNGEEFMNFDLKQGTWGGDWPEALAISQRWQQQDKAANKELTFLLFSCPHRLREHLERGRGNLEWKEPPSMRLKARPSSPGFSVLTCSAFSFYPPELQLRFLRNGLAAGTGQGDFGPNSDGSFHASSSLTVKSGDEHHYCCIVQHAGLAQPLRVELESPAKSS
recombinant human FcRn/FCGRT-B2M heterodimer protein (human), sequence (P61769 21-119 limits assumed, chain 2 of 2, further chain): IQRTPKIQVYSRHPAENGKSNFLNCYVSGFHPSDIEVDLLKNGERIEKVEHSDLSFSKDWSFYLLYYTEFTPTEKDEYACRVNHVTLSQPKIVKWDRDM

[5] = biological target: recombinant human FcRn/FCGRT-B2M heterodimer protein (human) (UniProt P55899); experiment: SPR, steady state affinity, pH 6.0

## S309 monoclonal antibody
[1]
  EC50 (read off the curve): 0.09 µg/mL
[2]
  EC50 (read off the curve): 0.04 µg/mL
[3]
  EC50 (read off the curve): 0.1 µg/mL

## human IgG1 isotype control antibody
[4]
  RUmax (steady state affinity, pH 6.0): 37.5 RU
[5]
  Kd: 15 nM

## Bebtelovimab Biosimilar (PX-TA1750) (antibody)
[4]
  RUmax (steady state affinity, pH 6.0): 57.1 RU
[5]
  Kd: 19.4 nM
